Our source for the percent of the binding seen under native conditions values is patent EP2265632B1, “CD4-RELATED POLYPEPTIDES AND METHODS OF USE” (priority 2008, dated 2009).

Assay [1] has as its target recombinant HIV-1BaL gp120 (HIV-1 BaL). Nature of the assay: ELISA on immobilized gp120BaL in 25 mM DTT.
For assay [2] the target is unchanged. Briefly: ELISA on immobilized gp120BaL in 100 mM β-mercaptoethanol.

On to MAb 2G12 (antibody), for which the percent of the binding seen under native conditions in assay [1] and in assay [2] was 50% each time.

Take MAb IgG1 b12 (antibody): the percent of the binding seen under native conditions in assay [1] and in assay [2] was 50% each time.
